# In patent US8361728B2, “Method for diagnosis of glutamate dehydrogenase disorders” (priority 2008, dated 2013):
# System: N
# Experiment: purified protein, by the assay type
# Sequence of Ser445-hGDH2 (Homo sapiens) (chain, as listed by the source): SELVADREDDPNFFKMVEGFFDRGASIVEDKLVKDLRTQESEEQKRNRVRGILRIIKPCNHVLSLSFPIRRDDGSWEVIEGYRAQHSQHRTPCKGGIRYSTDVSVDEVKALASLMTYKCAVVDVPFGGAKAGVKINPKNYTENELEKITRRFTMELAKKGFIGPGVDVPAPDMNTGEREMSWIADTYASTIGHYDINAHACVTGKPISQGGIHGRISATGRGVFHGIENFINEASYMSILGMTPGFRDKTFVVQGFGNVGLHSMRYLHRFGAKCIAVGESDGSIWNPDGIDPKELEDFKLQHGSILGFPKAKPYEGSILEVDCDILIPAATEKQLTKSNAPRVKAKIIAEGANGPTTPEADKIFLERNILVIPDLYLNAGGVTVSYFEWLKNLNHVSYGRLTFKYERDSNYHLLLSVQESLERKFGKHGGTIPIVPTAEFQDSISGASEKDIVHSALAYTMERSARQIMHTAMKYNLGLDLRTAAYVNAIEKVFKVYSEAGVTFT
# Sequence of Ala445-hGDH2 (Homo sapiens; S498A) (chain, as listed by the source S498A): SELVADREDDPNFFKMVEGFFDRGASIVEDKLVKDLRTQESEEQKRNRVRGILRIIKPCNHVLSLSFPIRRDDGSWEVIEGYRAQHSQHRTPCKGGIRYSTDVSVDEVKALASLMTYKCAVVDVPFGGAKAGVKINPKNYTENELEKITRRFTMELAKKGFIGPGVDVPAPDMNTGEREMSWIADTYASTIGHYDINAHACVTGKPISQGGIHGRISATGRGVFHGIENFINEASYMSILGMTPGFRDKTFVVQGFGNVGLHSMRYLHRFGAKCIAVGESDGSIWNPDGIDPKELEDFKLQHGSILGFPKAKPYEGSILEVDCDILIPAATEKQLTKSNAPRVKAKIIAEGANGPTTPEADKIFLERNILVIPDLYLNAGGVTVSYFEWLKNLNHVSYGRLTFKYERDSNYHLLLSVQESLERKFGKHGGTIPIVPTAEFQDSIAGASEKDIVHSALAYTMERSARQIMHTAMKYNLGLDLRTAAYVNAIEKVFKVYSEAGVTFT
row,Substance,Km [mM]
1,Ser445-hGDH2 (Homo sapiens),17.05 ± 2.01
2,Ala445-hGDH2 (Homo sapiens; S498A),21.36 ± 3.56
3,hGDH1 (Homo sapiens),13.39 ± 0.72
